Source: patent US20110082079A1 (Novo Nordisk, published 2011)
*1 amine or outer side, *2 acyl side, *3 side chain or, on linkers, in order; H or OH if unused. Where no end group is shown, it is not given here. Side-chain parts run from the residue outwards. [ ]: non-standard residue; d: D form. The star is where a group is joined. C20 diacid = O=C(O)CCCCCCCCCCCCCCCCCCC(=O)*; C18 diacid = O=C(O)CCCCCCCCCCCCCCCCC(=O)*; C16 diacid = O=C(O)CCCCCCCCCCCCCCC(=O)*; γGlu = O=C(O)[C@H](CCC(=O)[*:2])N[*:1]; Desaminohistidyl = O=C(CCc1c[nH]cn1)*; βAsp = O=C(O)[C@H](CC(=O)[*:2])N[*:1]; Palmitoyl = CCCCCCCCCCCCCCCC(=O)*; Trx = NC[C@H]1CC[C@H](C(=O)O)CC1; Dap = NC[C@H](N)C(=O)O; AEEA = NCCOCCOCC(=O)O; Aib = CC(C)(N)C(=O)O; Inp = O=C(O)C1CCNCC1

How the values were obtained:
human GLP-1 receptor = human GLP-1 receptor (human, UniProt P43220 24-463); assay: cell-based or functional assay
human GLP-1 receptor, sequence (P43220 24-463): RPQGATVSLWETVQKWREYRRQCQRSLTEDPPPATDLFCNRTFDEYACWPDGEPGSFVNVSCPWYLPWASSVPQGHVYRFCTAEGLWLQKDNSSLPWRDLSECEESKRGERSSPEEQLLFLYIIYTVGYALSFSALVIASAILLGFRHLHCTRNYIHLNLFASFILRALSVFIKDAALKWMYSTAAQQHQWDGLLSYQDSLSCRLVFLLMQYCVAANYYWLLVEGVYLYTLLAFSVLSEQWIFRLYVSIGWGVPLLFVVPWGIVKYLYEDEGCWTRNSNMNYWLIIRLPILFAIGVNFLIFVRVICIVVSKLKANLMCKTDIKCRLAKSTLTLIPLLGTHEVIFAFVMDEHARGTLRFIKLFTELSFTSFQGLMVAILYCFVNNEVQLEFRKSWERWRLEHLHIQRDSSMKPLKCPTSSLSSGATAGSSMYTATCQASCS

[1] = target: T1, human serum albumin (HSA) (human, UniProt P02768 25-609, biotinylated); assay: competition SPA on biotinylated HSA beads; competitor 125I-labelled acylated GLP-1 analogue
T1 construct: also called biotinylated HSA

[2] = target: isolated N-terminal extracellular domain of the GLP-1R receptor (nGLP-1R) (UniProt P43220); assay: SPA; displacement of 125I-Exendin-4(9-39) from biotinylated nGLP-1R
isolated N-terminal extracellular domain of the GLP-1R receptor (nGLP-1R), sequence (P43220 24-145 limits assumed): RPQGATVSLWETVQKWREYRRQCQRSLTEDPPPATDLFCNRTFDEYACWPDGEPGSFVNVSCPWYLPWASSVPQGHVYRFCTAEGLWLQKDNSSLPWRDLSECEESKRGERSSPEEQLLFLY

| Potency [EC50/nM], cAMP formation (human GLP-1 receptor) [nM] | EC50 [1] [nM] | IC50 [2] [nM] | Molecule |
| --- | --- | --- | --- |
| 0.74 | 800 |  | N-epsilon31{2-(2-{2-[2-(2-{2-[4-Carboxy-4-(17-carboxy-heptadecanoylamino)butyrylamino]ethoxy}ethoxy)acetylamino]ethoxy}ethoxy)acetyl}-[Aib8,Glu22,Val25,Arg26,Lys31,Arg34,Arg35,Arg37)]GLP-1(7-37)yl [Arg39,Arg40,Arg41] (peptide) |
| 0.1 |  | 1500 | Liraglutide (peptide) |
| 0.18 | 200 to 400 |  | H[Aib]EGTFTSDVSSYLEEQAAREFIAK([AEEA-AEEA-βAsp-Inp-C20 diacid])LVRGRG |
| 0.29 | 150 to 200 |  | H[Aib]EGTFTSDVSSYLEEQAAREFIEWLVKGRPK (not fully specified (residue 32); printed as [Aib8,Glu22,Arg26,Glu30,Pro37]GLP-1-(7-37)Lys [2-(2-{2-[4-Carboxy-4-(4-carboxy-4-{4-[4-(16-1H-tetrazol-5-yl-hexadecanoylsulfamoyl)butyrylamino]butyrylamino}butyrylamino)butyrylamino]ethoxy}ethoxy)acetyl]) [[Aib8,Glu22,Arg26,Glu30,Pro37]GLP-1-(7-37)Lys …] |
| 0.22 | 200 to 400 |  | H[Aib]EGTFTSDVSSYLEEQAAREFIEWLVKGK([AEEA-AEEA-C18 diacid])GE-NH2 |
| 0.04 | 1500 to 2000 |  | [Desaminohistidyl]AEGTFTSDVSSYLEEQAAREFIEWLVRGRGEK([AEEA-AEEA-γGlu-C18 diacid]) [[desaminoHis7, Glu22, Arg26, Glu30, …] |
| 0.21 | > 2000 |  | [Desaminohistidyl]AEGTFTSDVSSYLEEQAAREFIEWLVRGK([AEEA-AEEA-γGlu-C16 diacid])GEK |
| 0.66 |  |  | [Desaminohistidyl]AEGTFTSDVSSYLEEQAAREFIEWLVRGRK([AEEA-AEEA-γGlu-Trx-C20 diacid]) |
| 0.34 | 150 to 200 |  | H[Aib]EGTFTSDVSSYLEEQAVREFIAK([AEEA-AEEA-γGlu-C18 diacid])LV[Dap](2‑(bis-carboxymethylamino)acetyl)-NH2 (GLP-1(7-34) = residues 1-28 of the entry) |
| 0.14 | 400 to 800 |  | H[Aib]EGTFTSDVSSYLEEQAVREFIAK([AEEA-AEEA-γGlu-C18 diacid])LVKKK-NH2 (N-terminus assumed; SMILES CC[C@H](C)[C@H](NC(=O)[C@H](Cc1ccccc1)NC(=O)[C@H](CCC(=O)O)NC(=O)[C@H](CCCNC(=N)N)NC(=O)[C@@H](NC(=O)[C@H](C)NC(=O)[C@H](CCC(N)=O)NC(=O)[C@H](CCC(=O)O)NC(=O)[C@H](CCC(=O)O)NC(=O)[C@H](CC(C)C)NC(=O)[C@H](Cc1ccc(O)cc1)NC(=O)[C@H](CO)NC(=O)[C@H](CO)NC(=O)[C@@H](NC(=O)[C@H](CC(=O)O)NC(=O)[C@H](CO)NC(=O)[C@@H](NC(=O)[C@H](Cc1ccccc1)NC(=O)[C@@H](NC(=O)CNC(=O)[C@H](CCC(=O)O)NC(=O)C(C)(C)NC(=O)[C@@H](N)Cc1c[nH]cn1)[C@@H](C)O)[C@@H](C)O)C(C)C)C(C)C)C(=O)N[C@@H](C)C(=O)N[C@@H](CCCCNC(=O)COCCOCCNC(=O)COCCOCCNC(=O)CC[C@H](NC(=O)CCCCCCCCCCCCCCCCC(=O)O)C(=O)O)C(=O)N[C@@H](CC(C)C)C(=O)N[C@H](C(=O)N[C@@H](CCCCN)C(=O)N[C@@H](CCCCN)C(=O)N[C@@H](CCCCN)C(N)=O)C(C)C, GLP-1(7-36) = residues 1-30 of the entry) |
| 0.08 | 200 to 400 |  | HXEGTFTSDVSSYLEEQAAREFIAWLVRGRK (not fully specified; Aib at 8; Lys37 is bound to the peptide through its epsilon amino group (epsilon-Lys37) and acylated at N-alpha with the side chain given in the name) |
| 0.35 | 1500 to 2000 |  | XAEGTFTSDVSSYLEEQAAREXIAWLVRGRK (desamino-histidine at 7; m-CF3-phenylalanine at 28; residue 37 acylated at N-epsilon with the side chain given in the name; C-terminal amide) |
| 0.06 | 100 to 150 |  | H[Aib]EGTFTSDVSSYLEEQAAREFIAWLVR[Aib]RK([AEEA-AEEA-γGlu-C18 diacid]) |
| 0.16 |  |  | [Desaminohistidyl]AEGTFTSDVSSYLEEQAAREFIEWLVRGRK([AEEA-AEEA-γGlu-Palmitoyl])-NH2 (SMILES CCCCCCCCCCCCCCCC(=O)N[C@@H](CCC(=O)NCCOCCOCC(=O)NCCOCCOCC(=O)NCCCC[C@H](NC(=O)[C@H](CCCNC(=N)N)NC(=O)CNC(=O)[C@H](CCCNC(=N)N)NC(=O)[C@@H](NC(=O)[C@H](CC(C)C)NC(=O)[C@H](Cc1c[nH]c2ccccc12)NC(=O)[C@H](CCC(=O)O)NC(=O)[C@@H](NC(=O)[C@H](Cc1ccccc1)NC(=O)[C@H](CCC(=O)O)NC(=O)[C@H](CCCNC(=N)N)NC(=O)[C@H](C)NC(=O)[C@H](C)NC(=O)[C@H](CCC(N)=O)NC(=O)[C@H](CCC(=O)O)NC(=O)[C@H](CCC(=O)O)NC(=O)[C@H](CC(C)C)NC(=O)[C@H](Cc1ccc(O)cc1)NC(=O)[C@H](CO)NC(=O)[C@H](CO)NC(=O)[C@@H](NC(=O)[C@H](CC(=O)O)NC(=O)[C@H](CO)NC(=O)[C@@H](NC(=O)[C@H](Cc1ccccc1)NC(=O)[C@@H](NC(=O)CNC(=O)[C@H](CCC(=O)O)NC(=O)[C@H](C)NC(=O)CCc1c[nH]cn1)[C@@H](C)O)[C@@H](C)O)C(C)C)[C@@H](C)CC)C(C)C)C(N)=O)C(=O)O) |
| 0.52 | 200 to 400 |  | H[Aib]EGTFTSDVSSYLEEQAAREFIK([AEEA-AEEA-βAsp-Inp-C20 diacid])WLVKGRG |
| 1.27 | > 2000 |  | H[Aib]EGTFTSDVSSYLEEQAVREFIAK([AEEA-AEEA-γGlu-C18 diacid])LVRRRR |
